The Immune Epitope Database (IEDB)

Experiments:
HLA-A*01:01 [1] = test: IEDB peptide-MHC binding, purified MHC/competitive/fluorescence; filed as Kd, often an IC50 or EC50 that approximates it; ≥ and ≤ were set here for values at or beyond the usual limits of such assays; settings: source organism: Human immunodeficiency virus 1
HLA-A*30:01 = test: as above; settings: source organism: Human immunodeficiency virus 1
HLA-B*08:01 [2] = test: as above; settings: source organism: Human immunodeficiency virus 1
HLA-B*15:01 [3] = test: as above
HLA-B*15:09 [4] = test: as above
HLA-B*15:17 [5] = test: as above; settings: source organism: Human immunodeficiency virus 1
HLA-B*38:01 [6] = test: as above; settings: source organism: Human immunodeficiency virus 1
HLA-A*26:01 [7] = test: as above; settings: source organism: Cryptosporidium parvum Iowa II
HLA-A*29:02 = test: as above; settings: source organism: Cryptosporidium parvum Iowa II
HLA-A*80:01 = test: as above; settings: source organism: Cryptosporidium parvum Iowa II
HLA-B*18:01 = test: as above; settings: source organism: Cryptosporidium parvum Iowa II
HLA-B*27:03 = test: as above; settings: source organism: Cryptosporidium parvum Iowa II
HLA-B*39:01 = test: as above
HLA-B*46:01 [8] = test: as above; settings: source organism: Cryptosporidium parvum Iowa II
HLA-B*51:01 = test: as above; settings: source organism: Cryptosporidium parvum Iowa II
HLA-B*57:01 [9] = test: as above; settings: source organism: Cryptosporidium parvum Iowa II
HLA-A*01:01 [10] = test: IEDB peptide-MHC binding, purified MHC/direct/fluorescence; filed as Kd, often an IC50 or EC50 that approximates it; ≥ and ≤ were set here for values at or beyond the usual limits of such assays
HLA-A*02:01 = test: as above
HLA-A*11:01 [11] = test: as above; settings: source organism: Marburg virus - Musoke, Kenya, 1980
HLA-A*26:03 = test: as above; settings: source organism: Orthomarburgvirus marburgense
HLA-A*31:01 = test: as above
HLA-A*68:02 = test: as above; settings: source organism: Marburg virus - Musoke, Kenya, 1980
HLA-A*69:01 = test: as above
HLA-B*07:02 = test: as above; settings: source organism: Marburg virus - Musoke, Kenya, 1980
HLA-B*08:01 [12] = test: as above
HLA-B*15:01 [13] = test: as above
HLA-B*15:17 [14] = test: as above
HLA-B*27:05 = test: as above
HLA-B*46:01 [15] = test: as above
HLA-B*48:01 = test: as above
HLA-B*57:01 [16] = test: as above
HLA-B*58:01 = test: as above
HLA-A*26:02 = test: IEDB peptide-MHC binding, purified MHC/competitive/fluorescence; filed as Kd, often an IC50 or EC50 that approximates it; ≥ and ≤ were set here for values at or beyond the usual limits of such assays; settings: source organism: Orthomarburgvirus marburgense
HLA-B*35:01 = test: as above; settings: source organism: Orthomarburgvirus marburgense
HLA-A*03:01 = test: IEDB peptide-MHC binding, purified MHC/direct/fluorescence; filed as Kd, often an IC50 or EC50 that approximates it; ≥ and ≤ were set here for values at or beyond the usual limits of such assays; settings: source organism: Rickettsia canadensis
HLA-A*26:01 [17] = test: as above; settings: source organism: Candidatus Rickettsia tarasevichiae
HLA-B*15:09 [18] = test: as above; settings: source organism: Candidatus Rickettsia tarasevichiae
HLA-B*38:01 [19] = test: as above; settings: source organism: Candidatus Rickettsia tarasevichiae
HLA-B*40:01 = test: as above; settings: source organism: Rickettsia canadensis
HLA-A*11:01 [20] = test: IEDB peptide-MHC binding, purified MHC/competitive/fluorescence; filed as Kd, often an IC50 or EC50 that approximates it; ≥ and ≤ were set here for values at or beyond the usual limits of such assays; settings: source organism: Rickettsia canadensis
[21] = source organism: Human immunodeficiency virus 1
[22] = source organism: Cryptosporidium parvum Iowa II
[23] = source organism: Marburg virus - Musoke, Kenya, 1980
[24] = source organism: Orthomarburgvirus marburgense
[25] = source organism: Rickettsia canadensis

Measured: Kd

GSEEIKSLF
≥ 20 µM: HLA-A*01:01 [1] | HLA-A*30:01 | HLA-B*08:01 [2] | HLA-B*15:01 [3]; [21] | HLA-B*15:09 [4]; [21] | HLA-B*38:01 [6]
0.182 µM: HLA-B*15:17 [5]

KLGDITLFL
≥ 20 µM: HLA-A*26:01 [7] | HLA-B*15:01 [3]; [22] | HLA-B*18:01 | HLA-B*27:03 | HLA-B*39:01; [22] | HLA-B*46:01 [8] | HLA-B*51:01 | HLA-B*57:01 [9]
0.0341 µM: HLA-A*29:02
0.0156 µM: HLA-A*80:01

NQECWDSVF
0.216 µM: HLA-B*35:01
0.384 µM: HLA-A*26:02
0.364 µM: HLA-B*39:01; [24]
0.373 µM: HLA-B*15:01 [13]; [23]
≥ 20 µM: HLA-A*01:01 [10]; [23] | HLA-A*02:01; [23] | HLA-A*11:01 [11] | HLA-A*26:03 | HLA-A*31:01; [23] | HLA-A*68:02 | HLA-A*69:01; [23] | HLA-B*07:02 | HLA-B*08:01 [12]; [24] | HLA-B*15:17 [14]; [23] | HLA-B*27:05; [23] | HLA-B*46:01 [15]; [23] | HLA-B*48:01; [23] | HLA-B*57:01 [16]; [23] | HLA-B*58:01; [23]
2.52 µM: HLA-B*15:09 [4]; [24]

SSEADCFTY
0.0553 µM: HLA-A*01:01 [10]; [25]
0.0816 µM: HLA-B*15:17 [14]; [25]
≥ 20 µM: HLA-A*02:01; [25] | HLA-A*03:01 | HLA-A*26:01 [17] | HLA-A*31:01; [25] | HLA-A*69:01; [25] | HLA-B*08:01 [12]; source organism: Candidatus Rickettsia tarasevichiae | HLA-B*15:01 [13]; [25] | HLA-B*15:09 [18] | HLA-B*27:05; [25] | HLA-B*38:01 [19] | HLA-B*40:01 | HLA-B*46:01 [15]; [25] | HLA-B*48:01; [25] | HLA-B*57:01 [16]; [25] | HLA-B*58:01; [25] | HLA-A*11:01 [20]
